Experimental data: article doi:10.1101/203372

Molecular target: HDAC6-EGFP WT (full-length human histone deacetylase 6 fused to EGFP) (human) (UniProt Q9UBN7)
Test: MST

HDAC6-EGFP WT (full-length human histone deacetylase 6 fused to EGFP) (human), sequence (Q9UBN7 whole entry, the tested form may be a part): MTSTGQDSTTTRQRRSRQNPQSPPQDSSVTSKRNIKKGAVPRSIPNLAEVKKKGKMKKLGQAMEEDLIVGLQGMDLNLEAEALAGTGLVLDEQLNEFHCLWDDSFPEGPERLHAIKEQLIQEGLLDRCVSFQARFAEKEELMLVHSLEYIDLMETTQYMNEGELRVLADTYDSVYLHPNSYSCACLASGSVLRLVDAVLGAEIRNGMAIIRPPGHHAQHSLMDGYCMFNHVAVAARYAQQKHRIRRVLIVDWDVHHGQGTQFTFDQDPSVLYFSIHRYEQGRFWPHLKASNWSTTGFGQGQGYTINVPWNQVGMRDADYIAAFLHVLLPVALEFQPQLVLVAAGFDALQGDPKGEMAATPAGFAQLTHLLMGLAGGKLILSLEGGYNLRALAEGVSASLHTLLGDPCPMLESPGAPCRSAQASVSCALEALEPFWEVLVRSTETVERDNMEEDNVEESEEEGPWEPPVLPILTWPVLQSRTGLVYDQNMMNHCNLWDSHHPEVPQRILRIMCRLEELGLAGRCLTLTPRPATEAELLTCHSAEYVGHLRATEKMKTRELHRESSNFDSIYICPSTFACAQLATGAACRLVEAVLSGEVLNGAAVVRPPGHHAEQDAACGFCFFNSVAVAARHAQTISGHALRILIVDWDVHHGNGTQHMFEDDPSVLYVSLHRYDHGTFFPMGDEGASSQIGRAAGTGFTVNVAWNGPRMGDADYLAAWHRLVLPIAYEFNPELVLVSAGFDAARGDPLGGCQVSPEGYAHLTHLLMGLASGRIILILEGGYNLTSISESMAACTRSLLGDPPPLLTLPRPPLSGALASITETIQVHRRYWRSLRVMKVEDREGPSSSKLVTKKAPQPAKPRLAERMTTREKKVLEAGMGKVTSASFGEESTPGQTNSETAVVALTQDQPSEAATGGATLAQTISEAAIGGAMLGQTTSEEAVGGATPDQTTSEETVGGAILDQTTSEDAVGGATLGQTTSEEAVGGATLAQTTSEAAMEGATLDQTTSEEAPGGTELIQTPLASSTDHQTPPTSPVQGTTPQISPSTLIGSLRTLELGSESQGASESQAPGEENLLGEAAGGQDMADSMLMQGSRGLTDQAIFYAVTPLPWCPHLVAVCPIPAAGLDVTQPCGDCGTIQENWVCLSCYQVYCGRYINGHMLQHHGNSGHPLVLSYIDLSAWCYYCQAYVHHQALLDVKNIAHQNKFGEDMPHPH
NEDD8, human, recombinant, His-tag, sequence (Q15843 1-76): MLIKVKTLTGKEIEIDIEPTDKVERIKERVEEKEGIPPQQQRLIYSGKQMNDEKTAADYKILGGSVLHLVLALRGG

Row | fold higher affinity than mono-Ub | fold lower affinity than mono-Ub | Substance
1 | 4 fold |  | K63-linked tetra-Ub (from UniProt P0CG48)
2 |  | 50 fold | NEDD8, human, recombinant, His-tag (from UniProt Q15843 1-76) (natural protein)
